Here are results for eight molecules from patent publication US20260201033A1 (LTZ THERAPEUTICS, published 2026).

The target in assay [1] is T1, Human CLEC5A His Tag protein (ACROBiosystems, Cat #: CLA-H5243) (human, UniProt Q9NY25 28-188, limits assumed).
T1 construct: Bought protein with a His tag; also called recombinant human CLEC5A protein
T1 sequence: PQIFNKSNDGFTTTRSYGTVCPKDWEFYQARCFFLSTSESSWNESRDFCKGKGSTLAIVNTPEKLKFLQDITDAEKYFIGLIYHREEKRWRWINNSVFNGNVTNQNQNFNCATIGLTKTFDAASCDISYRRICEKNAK
In words: ELISA, plate coated with human CLEC5A.

The target in assay [2] is T2, Human C-type lectin domain family 5 member A (CLEC5A), endogenous on human monocytes and M0 macrophages (human, UniProt Q9NY25 1-188).
T2 construct: Endogenous CLEC5A on primary human monocytes and monocyte-derived M0 macrophages; also called MDL-1; M0 macrophages (CLEC5A+) cells
T2 sequence: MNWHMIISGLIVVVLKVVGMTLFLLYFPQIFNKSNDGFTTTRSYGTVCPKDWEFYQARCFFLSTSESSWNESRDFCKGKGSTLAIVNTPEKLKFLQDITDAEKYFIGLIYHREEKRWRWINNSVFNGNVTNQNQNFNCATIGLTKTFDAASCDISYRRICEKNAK
In words: flow cytometry on human M0 macrophages, anti-human IgG PE. Background: A flow cytometer gives signals particle by particle.

Assay [3] has as its target T3, mouse CLEC5A (R&D Systems, Cat #: 8438-CL-050) (mouse, UniProt Q9R007 26-190, limits assumed).
T3 construct: Bought protein; also called recombinant mouse CLEC5A protein
T3 sequence: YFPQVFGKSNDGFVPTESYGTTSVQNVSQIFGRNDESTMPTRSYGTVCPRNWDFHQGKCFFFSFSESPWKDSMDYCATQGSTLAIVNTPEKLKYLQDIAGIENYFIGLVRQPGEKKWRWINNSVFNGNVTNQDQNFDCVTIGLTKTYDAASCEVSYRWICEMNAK
In words: ELISA, plate coated with mouse CLEC5A. In general terms: An ELISA detects its analyte on a solid surface through an enzyme-linked reagent.

In assay [4] the target is T4, recombinant human CLEC5A, His Tag (ACROBiosystems, Cat #: NC1-H52H4) (human, UniProt Q9NY25 28-188).
T4 construct: Analyte of the BLI assay; Its catalogue number differs from that of the ELISA antigen; also called human CLEC5A (BLI analyte)
T4 sequence: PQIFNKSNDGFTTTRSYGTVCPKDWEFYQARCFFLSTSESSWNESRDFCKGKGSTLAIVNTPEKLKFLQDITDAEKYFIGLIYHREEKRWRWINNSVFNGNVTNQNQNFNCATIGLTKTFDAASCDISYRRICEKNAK
In words: BLI, antibody 10 ug/ml captured on anti-human IgG Fc probe, analyte hCLEC5a; table row hCLEC5a 0.78 nM; all four rows print the same value.

The target of assay [5] is T4, recombinant human CLEC5A, His Tag …. In words: BLI, antibody 10 ug/ml captured on anti-human IgG Fc probe, analyte hCLEC5a; table row hCLEC5a 1.56 nM; all four rows print the same value.
For assay [6] the target is unchanged. In words: BLI, antibody 10 ug/ml captured on anti-human IgG Fc probe, analyte hCLEC5a; table row hCLEC5a 3.12 nM; all four rows print the same value.
Assay [7] shares this target. In words: BLI, antibody 10 ug/ml captured on anti-human IgG Fc probe, analyte hCLEC5a; table row hCLEC5a 6.25 nM; all four rows print the same value.

B1: 13E6, chimeric rabbit/human IgG1 anti-CLEC5A antibody (Fc-silenced) (antibody, V domains shown)
VH: QSLEESGGDLVKPGGTLTLTCTASGFSFSSSYWLCWVRQAPGKGLEWIACIYGGSSRGTYYASWAKGRFTISKTSSTTVTLQMTSLTAADTATYFCASHTYTYPRFSPYFNLWGPGTLVSVSS
VL: AFEMTQTPASVSPAVGGTVSINCQASEDIESSLAWYQQKPGQPPKLLIYDASDLESGVPSRFKGSGSGTEYTLTISGVQPADAATYFCQSAYYTGSADNTFGGGTEVVVK
notes: also called ch13E6
As usually defined, the EC50 is the concentration that produces a half-maximal response. In the case of B1, the values for the EC50 in assay [1] and in assay [2] were 0.61 nM and 2.57 nM, respectively.

B2: 6A5, chimeric rabbit/human IgG1 anti-CLEC5A antibody (Fc-silenced) (antibody, V domains shown)
VH: QQQLEESGGGLVKPGGTLTLTCTASGFSFSSSYYMCWVRQAPGKGLELIACIYSSSGRTWYATWVNGRFTISRSTSLNTVDLKMTSLTAADTATYFCARSYAGYGGYGYAYFNLWGPGTLVTVSS
VL: DIVMTQTPASVEAGVGGTVTIKCQASEDIYSSLAWYQQKAGQRPKLLIYDASTLASGVPSRFKGSGSGTEYTLTISGVQPDDAATYYCQNYYDSTGSGYGAAFGGGTEVVVK
notes: also called ch6A5
With B2, the figures for the EC50 in assay [3], in assay [1] and in assay [2] were 0.12 nM, 0.31 nM and 9.8 nM, respectively.

B3: 9E11, chimeric rabbit/human IgG1 anti-CLEC5A antibody (Fc-silenced) (antibody, V domains shown)
VH: QSLEESGGGLVQPEGSLTLTCTASGFDLNNYYYMCWVRQAPGKGLEWIACTHAGSSSSSYYARWAKGRFTISKTSSTTVTLQMTSLTAADTATYFCARHDRDYDDMDLWGPGTLVTVSS
VL: NIVMTQTTSPVSAVVGGTITINCQASQSIEYGYLSWYQQKPGQPPKLLIFYASKLASGVPSRFSGSGSGTQFTLTISGVQPDDAATYFCLYGYFDDYSGAAFGGGTEVVVK
notes: also called ch9E11
Regarding B3, the EC50 in assay [2] amounted to 1.59 nM.

B4: 7G10, chimeric rabbit/human IgG1 anti-CLEC5A antibody (Fc-silenced) (antibody, V domains shown)
VH: QQQLEESGGGLVKPGGTLTLTCKASGFSFSSGYDMCWVRQAPGKGLEWIACIYGGRSDNVYYARWAKGRFTISKTSSTTVTLQMTSLTAADTATYFCARDYLYRGYIGGGYGRSNLWGPGTLVTVSS
VL: DVVMTQTPASVSAAVGGTVTINCRASEDIENCLAWYQQKPGQPPKLLIYQASKLPSGVPSRFSGSGSGTEYTLTISDLEPDDGATYYCQNPDYMRNTDNLFGGGTEVVVK
notes: also called ch7G10
As for B4, the concentration giving a half-maximal response (EC50) in assay [1] worked out at 0.16 nM; in assay [2], 2.06 nM.

B5: 6G9, chimeric rabbit/human IgG1 anti-CLEC5A antibody (Fc-silenced) (antibody, V domains shown)
VH: QSLEESGGDLVKPGASLTLTCTASGFSFTSNKYMCWVRQAPGKGPEWIACIYVGDGNTYYASWAKGRFTISKTSSTTVTLQMTSLTVADTATYFCARGGDYSIGGGGFASNLWGPGTLVTVSS
VL: AFELTQTPSSVEAAVGGTVTINCQASESISNFLAWYRQKPGQPPKLLIYRASTLASGVSSRFKGSGSGTEFTLTISDLEPADGASYYCQSYYGTSSTGHNVFGGGTEVVVK
notes: also called ch6G9
As for B5, in assay [2], the EC50 turned out to be 6.84 nM.

B6: DX244, reference anti-CLEC5A antibody (antibody, human IgG1, V domains shown)
VH: QIQLVQSGPELKKPGETVKISCKASGYTFTIYAMNWVKQAPGKGLEWMGWINTDTGEPTYADDFKGRFAFSLETSASTAYLQINNLKNEDMATYFCARSSEVFYDYRFDYWGQGTALTVSS
VL: DIQMTQSPSSLSASLGERVSLTCRASQDIGSSLNWLQQEPDGTIKRLIYATSNLDSGVPKRFSGSRSGSDYSLTISSLESEDFVHYYCLQYASSPFTFGSGTKLEIKR
notes: also called benchmark DX244
Molecule B6 registered an EC50 in assay [2] of 2.8 nM.

B7: 3A7, chimeric rabbit/human IgG1 anti-CLEC5A antibody (Fc-silenced) (antibody, V domains shown)
VH: QSLEESGGDLVKPGASLTLTCTASGFSFSGMYWICWVRQAPGKGLEWIACIYTGSSTTGYASWAKGRFTISKTSSTTVTLQMTSLTAADTATHFCASPYGDSSHYRGLNLWGPGTLVTVSS
VL: AVVMTQTPASVEAAVGGTVTINCQASQRINNYLSWFQQKPGQPPKLLIYGAATLASGVPSRFKGSGSGTEYTLTISDLEPADAATYYCQCTYGIPSSNYGFGGGTEVVVK
notes: also called ch3A7
The term Kd denotes the equilibrium constant for the complex coming apart. The koff is the first-order rate constant of dissociation. One may read the kon as the rate constant with which the complex forms. As for B7, the figures for the EC50 in assay [1] and in assay [2] were 0.71 nM and 0.96 nM, respectively. The equilibrium dissociation constant (Kd) in assay [4], in assay [5], in assay [6] and in assay [7] was 0.0631 nM throughout. For the same molecule, the dissociation rate constant (koff) in assay [4], in assay [5], in assay [6] and in assay [7] was 8.96e-05 s⁻¹ each time. Besides, the kon in assay [4], in assay [5], in assay [6] and in assay [7] was 1.42e+06 M⁻¹ s⁻¹ each time.

B8: 14A2, chimeric rabbit/human IgG1 anti-CLEC5A antibody (Fc-silenced) (antibody, V domains shown)
VH: QSLEESGGGLVKPEGSLTLTCKASGFTLSSYYYMCWVRQAPGKGLEWIACIYAGSSGTTVYASWAKGRFTISKTSSTTVTLQMTSLTAADTATYLCARKLGDVGYGHTTYFNLWGPGTLVTVSS
VL: ALVMTQTPSSVSAAVGGTVTIKCQASQNIYSTLAWYQQKPGQPPKLLMFDASDLASGVPSRFKGSGSGTEYTLTISDLEPADAATYFCQTYYDSGSDDLNAFGGGTEVVVK
notes: also called ch14A2
B8: the EC50 in assay [3] was 0.184 nM; in assay [2], 3.99 nM.
